Experimental data from PMC8331134, “Increased expression of ANAC017 primes for accelerated senescence”.

T1: ANAC017 (lacking C-terminal transmembrane domain) (Arabidopsis thaliana, UniProt Q9XIC5 1-525)
T1 sequence: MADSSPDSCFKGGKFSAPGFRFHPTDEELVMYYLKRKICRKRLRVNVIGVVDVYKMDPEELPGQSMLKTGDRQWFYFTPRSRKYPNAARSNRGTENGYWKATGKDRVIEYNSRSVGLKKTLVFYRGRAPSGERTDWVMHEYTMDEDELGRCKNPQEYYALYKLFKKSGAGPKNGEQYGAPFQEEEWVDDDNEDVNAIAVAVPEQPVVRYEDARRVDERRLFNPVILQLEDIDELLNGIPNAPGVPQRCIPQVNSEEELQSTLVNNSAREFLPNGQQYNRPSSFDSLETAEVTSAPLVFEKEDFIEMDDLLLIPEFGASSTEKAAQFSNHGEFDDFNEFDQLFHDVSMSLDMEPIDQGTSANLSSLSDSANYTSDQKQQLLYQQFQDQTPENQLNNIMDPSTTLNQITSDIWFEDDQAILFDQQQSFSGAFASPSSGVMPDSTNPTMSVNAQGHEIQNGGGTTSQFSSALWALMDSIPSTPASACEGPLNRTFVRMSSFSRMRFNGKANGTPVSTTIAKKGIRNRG


Assays:
[1] = target: T1, ANAC017 (lacking C-terminal …); experiment: EMSA; stronger than MDM2; Binding reactions as in Ng et al. 2013 (buffer, pH, temperature not given); 12% acrylamide 0.5x TBE gels; conditions: protein: recombinant; tags: GST (pDEST15); chain copies: 2; label: 32P 5' end (T4 PNK)
[2] = target: T1, ANAC017 (lacking C-terminal …); experiment: EMSA; clear shift, less than MDM1; Binding reactions as in Ng et al. 2013 (buffer, pH, temperature not given); 12% acrylamide 0.5x TBE gels; conditions: protein: recombinant; tags: GST (pDEST15); chain copies: 2; label: 32P 5' end (T4 PNK)

Binder	binding result [1]	binding result [2]
ANAC016 intron 1 MDM1 probe (dsDNA) DNA 1: GATGTAGTTGAGTATATGACAAGGAAAAGTTTTGGTTGTT DNA 2: AACAACCAAAACTTTTCCTTGTCATATACTCAACTACATC	binds	–
ANAC016 intron 1 MDM2 probe (dsDNA) DNA 1: GATTTGTTGAGTATATGACAAGGAAACGTCTTTATTCACT DNA 2: AGTGAATAAAGACGTTTCCTTGTCATATACTCAACAAATC	–	binds
